Reference: the supplement of paper PMC11865577

Columns and labels:
Assay in all cases: pull-down binding Z-score (relative to library population); higher = stronger binding
[1] = test system: G-clamp-N3 (biotin conjugate); settings: RNA library: Library-1 (pre-miRNA loops + repeats)
How it was run: (§1)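 An RNA library (1 μg) carrying a Cy5 or Cy3 end label was heat-folded in phosphate/NaCl/KCl buffer, then incubated for 60 min at 25 °C with streptavidin beads loaded with 100 pmol of biotin-conjugated small molecule. The beads were washed three times, and bound RNA was released in hot SDS and hybridised to a DNA barcode microarray for 20 h at 55.5 °C. Each binding score was derived by subtracting the signal from beads without compound, averaging the barcoded replicate probes after removing the highest and lowest, and expressing the result as a Z-score relative to the library mean and standard deviation.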

[2] = test system: TO-3-N3 (biotin conjugate); settings: RNA library: Library-2
How it was run: as §1

[3] = test system: TO-3-N3-2 (biotin conjugate); settings: RNA library: Library-2
How it was run: as §1

TO-N3 (biotin conjugate) = settings: RNA library: Library-2
How it was run: as §1

[4] = test system: TO-N3-2 (biotin conjugate); settings: RNA library: Library-2
How it was run: as §1

Sequence	pull-down binding Z-score [1]	pull-down binding Z-score [2]	pull-down binding Z-score [3]	pull-down binding Z-score (TO-N3 (biotin conjugate))	pull-down binding Z-score [4]
GUGUGGAGAGAGCACUGAGCCUGCCCACC [hsa-mir-6849]	-0.498	-0.134	-0.152	0.55	1.45
GUCUGGCAUUGUCUGAUAUAC [hsa-mir-1294]	0.671	1.12	0.316	1.2	0.408
AAACGUGCUCAGUGUCUUUAUAACAGGAAAGCCGUAAAC [hsa-mir-1272]	-0.626	0.0446	0.284	0.528	0.894
GGCUGGACAGGAGAGGGCUCACCCAGG [hsa-mir-6775]	0.487	1.16	0.591	1.78	1.77
GUGAGUUAGAAAAGCUCAAUUCAC [hsa-mir-4457]	-0.276	-0.654	-0.365	-0.662	-0.405
CUGAUUGUCAUAUGUCGUUUGUGGGAUCCG [hsa-mir-340]	-0.698	-0.605	-0.336	-0.333	0.334
GGGCGCCGGCGGCCGGGAGAUCCGCGCUUCCUGAAUCCCGGCCGGCCCGCCCGGCGCCC [hsa-mir-4497]	-0.232	0.25	-0.00137	0.447	1.22
ACCCUGCAGCCCCAGCUGGAGGAUGAGGAGAUGCUGGGCUUGGGU [hsa-mir-4313]	1.16	0.794	1.45	1.73	2.93
CAUGUGCUGAGUUCGUGCCAUAUG [hsa-mir-654]	0.492	-0.615	-0.228	-0.299	0.41
CCGACUCUGAGUAUGAUAGAAGUC [hsa-mir-148a]	-1.56	0.905	0.613	1.48	2.33
CGCGGAGCAGCGCUGGGUGCAGCGCCUG [hsa-mir-4508]	-0.567	-0.051	-0.27	0.334	1.5
CGGAGCAGUCACGUUGACGGAAUCCUCCG [hsa-mir-3183]	0.489	0.234	-0.255	0.329	0.498
GGGCAGAAAUAGAUGGCCU [hsa-mir-4270]	2.97	1	0.429	1	1.07
UCCUUUUCUCUACCUUGUAGAGAAGCA [hsa-mir-3609]	-0.207	0.0918	-0.379	0.281	-0.258
GCAGCUGGAAUUCAAGCCCUGCUGC [hsa-mir-6882]	-0.0183	-0.477	-0.319	-0.475	0.0816
AGAAGACCU [hsa-mir-378g]	0.213	0.421	0.241	0.403	0.244
GCCUGUGUAGACGGGGACCUGCCCUGCAUGGGCACCCCCUCACUGGC [hsa-mir-6762]	-0.617	0.332	0.322	0.173	0.347
GGAGCUCAGCACCUGCCUGCCACCCACGCAGACCAGCCCCUGCUCUGUUCCCACAG [hsa-mir-4648]	-0.622	0.85	0.329	1.56	1.9
GGCGGAGGCAGGCGUGACCGUUUGCC [hsa-mir-4632]	1.09	0.432	0.38	1.11	1.56
CCCACUCCAAAGUUCACAGAAUGGGUGG [hsa-mir-541]	0.626	2.05	0.837	1.8	1.15
CUGCGGCCCUGAUGUCUCUACUCCAG [hsa-mir-4691]	-0.134	0.388	0.103	0.703	0.919
AGGCUCUGGGUCCGGCUUACUCCCUAGCUUACUGUCCUCAGAACCC [hsa-mir-6071]	-0.386	-0.173	0.226	0.311	0.924
GAGGGGCUUACUGCCCUGUGGGGCUCUCUGGACCCAGUGCCAUGCUUCUC [hsa-mir-6728]	0.541	-0.224	-0.363	0.295	1.23
UGGCACAGAUCCAAUACCUUCUGUCCCC [hsa-mir-6810]	-0.424	0.0686	-0.361	-0.118	0.171

Sequence	pull-down binding Z-score [1]	pull-down binding Z-score [2]	pull-down binding Z-score [3]	pull-down binding Z-score (TO-N3 (biotin conjugate))	pull-down binding Z-score [4]
CAAGUUAUCACUGAGCGACUUC [hsa-mir-4664]	-1.2	-0.47	-0.235	-0.349	-0.296
CCAGUGCUGGGCUCAGACCCUGG [hsa-mir-150]	0.197	-0.0352	-0.226	0.0645	0.701
GAGUUGCUGAGUGGGUUGAUCUC [hsa-mir-6764]	0.494	0.17	0.061	0.122	0.652
GCAGGCCGUGAACUCGUCGAGCUGCGCGUGCGGCCGGUGCUCA [hsa-mir-1199]	0.693	0.55	0.103	1.47	2.02
CCAUGCUGUUUAAGCCUAGCAUAG [hsa-mir-4423]	-0.374	0.0223	-0.16	0.208	0.476
CCUUCCAAUACCUGUAAGCAGAAGG [hsa-mir-3158-2]	0.355	0.0988	0.0627	0.0957	0.397
ACUUUCACCAGAGAGCAGAAAGU [hsa-mir-371b]	0.341	-0.485	-0.564	-0.636	-0.356
AGUUCAGGAGGUGGCACUGCUGUGUGUGAGCU [hsa-mir-6876]	1.55	0.801	0.631	0.97	1.27
AACAGCAGGAUUGGCUGUAGCUGUU [hsa-mir-2117]	0.593	0.357	-0.324	0.185	0.369
UGGCUGCUUGGGUCAAGUCAGCAGCCA [hsa-mir-449b]	1.35	-0.201	-0.474	-0.272	-0.648
ACACUGCGCUGCCCCAGACCCACUGU [hsa-mir-210]	-1.18	0.364	0.103	0.83	0.683
CUUUUAUGUGCCUUGAUAUAAAAG [hsa-mir-3910-2]	-0.124	-0.556	-0.297	-0.644	-0.682
UGUAUUUUUCAGCAAGGCAAGGGCUUUGAUGUCUUGUA [hsa-mir-8065]	-0.314	-0.583	-0.132	-0.402	-0.0538
AGCUGGGGCCGGGU [hsa-mir-4281]	0.118	1.37	0.821	1.63	1.27
UUGGCACAGGGAAGCGAGUCUGCCAA [hsa-mir-195]	2.53	0.0632	0.354	0.504	1.23
AAAUAAGCUCCAUAUCAAUGAGAAUUUCAAUGGGAUUAUGUG [hsa-mir-4791]	-1.06	-0.569	-0.0328	-0.415	0.0926
CCCACCAUGUACCAGUGGG [hsa-mir-4422]	-1.07	-0.343	-0.535	-0.813	-0.708
GCAUCCUUGGAAUCUGCACUCAAGGGAUGC [hsa-mir-5089]	0.605	0.451	-0.0765	0.358	0.0295
CUGCAGAGACGAGGCCUGUAG [hsa-mir-5682]	0.122	0.688	0.149	0.828	0.886
CCACUACCGGUGA [hsa-mir-4658]	-0.573	-0.207	-0.309	-0.127	-0.288
UCUGGGGAGAGAGUCCUCUUUUCAGC [hsa-mir-8082]	-0.804	0.432	-0.234	0.571	0.614
AUCACUGAAAUAUGUCUGAGCUUCUGUU [hsa-mir-4501]	-0.332	-0.584	-0.00263	-0.658	-0.302
AGUGUUGUUUUUUCCCCCGCCAAUAUU [hsa-mir-92b]	-0.606	-0.34	0.29	-0.16	0.0118
GGUGGGGGCUCUGAGUGGGGAAAGUGGGGGCCUAGGGGAGGUCACAGU [hsa-mir-4259]	0.943	4.45	3.57	4.21	2.4

Sequence	pull-down binding Z-score [1]	pull-down binding Z-score [2]	pull-down binding Z-score [3]	pull-down binding Z-score (TO-N3 (biotin conjugate))	pull-down binding Z-score [4]
GCGUCGCUUCUCCCUAAUGUUGCC [hsa-mir-6781]	-0.106	-0.385	0.089	-0.068	0.502
GGGGAUGGACUGGAAGUGGGCAGCAUGGAGCUGACCUUCAUCAUGGCUUGGCCAACAUAAUGCCUC [hsa-mir-1236]	-0.0946	1.72	1.33	1.98	1.38
AGCACUUUCUGUUGUCUGAAAGAAAAGAAAGUGCU [hsa-mir-516a-1_516a-2]	1.47	0.399	0.0524	0.686	-0.0183
GACUGCUCAAGGUCAAAGGGGUC [hsa-mir-3918]	2.12	0.174	0.119	0.367	0.66
CACACACAAUCACCGUGUG [hsa-mir-3118-2_3118-3_3118-4]	0.27	0.0723	-0.0846	-0.218	-1.24
GAGAAACUUGAGGUCUCUGGGAGUUGCUUAAACCAGUUGACCGUAACCUGGCCAGAGAAUUCUGAUAGUGUC [hsa-mir-6740]	1.09	-0.13	-0.00402	0.571	1.32
CCUUUGUGAGCAGUGUGACCCAAGGCCUGUGGACAGGG [hsa-mir-555]	0.911	-0.0854	-0.351	0.241	1.15
GGUUGUUAGAUAGACAACU [hsa-mir-4510]	0.718	0.632	0.19	0.328	-0.496
AAGACACUAUCUUACAACAACAGGGCUCUU [hsa-mir-550b-1]	0.13	1.17	0.281	1.01	0.298
CUUUUUGCCACCUGAGCACAGUCAGCAGUCAGCAUAAAA [hsa-mir-4275]	0.39	0.6	0.292	1.13	1.15
UUGAGAAGUAAUUGA [hsa-mir-548ak]	0.0758	0.404	-0.0284	0.251	-0.239
UUGCCCAA [hsa-mir-548bb]	0.764	-0.0547	-0.317	-0.211	-0.332
AGAUGAGUUUAUGUUUUAUCCAACU [hsa-mir-193b]	-1.8	-0.608	-0.228	-0.416	-0.135
AGGCCUGAGUCUCUCUGCUGCAGAUGGGCUC [hsa-mir-422a]	-0.38	-0.112	-0.0262	0.668	1.29
GGUAGAGAUGAUUUUUCCUACU [hsa-mir-5003]	0.245	1.76	0.65	1.78	0.226
GCUGAGGUUGCGUUGACGCUCGC [hsa-mir-1292]	0.447	0.0445	-0.0926	0.384	1.17
ACUUCAGAUGCUUCAUGACA [hsa-mir-6865]	-0.511	-0.0886	-0.117	-0.0452	-0.0136
GGCUGGCCCCCUGCUUCGUGCCCAUCC [hsa-mir-937]	-1.14	0.211	0.127	0.83	1.53
CUCGGCCAUCCUCCGUCUGCCCAG [hsa-mir-935]	-1.08	-0.0566	0.13	0.473	1.16
GUGGAGGGUGGUGCCGCCGGGGCCGGGCGCUGUUUCAGCUCGCUUCUCCCCCCAC [hsa-mir-1224]	0.608	2.06	1.31	2.71	2.36
UCCUGAGCUAGGAGGAUUAGGA [hsa-mir-5093]	1.05	-0.171	-0.0611	-0.07	0.417
AGACCUUCCUUCCUUGUCU [hsa-mir-3163]	-1.91	-0.452	-0.206	-0.558	-0.35
GAAUGAAAAAAUGAAUCAUC [hsa-mir-421]	0.509	-0.311	0.0689	-0.29	-0.0724
GGGAUGAGCCCUGGCUCUGUUUCCUAG [hsa-mir-378h]	-0.127	0.0333	-0.0124	0.385	0.596
